Measured values as given in the supplement of paper PMC10724198.
± gives the standard deviation of the averaged measurements.

Assays:
[1] = tested on: Saccharomyces cerevisiae; assay: protein stability index of tFT-peptide fusion (C-terminal peptide) (PSI (0-1 scale)); higher = more stable (slower turnover)
Method: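 MPS profiling in S. cerevisiae of the tFT-X12 degron library: putative degron peptides plus stable controls, 12 aa, fused to the C-terminus of a sfGFP-mCherry timer. Cells are FACS-sorted into 8 mCherry/sfGFP bins and deep-sequenced. PSI runs from 0 (unstable) to 1 (stable). Backgrounds are wild type, das1Δ and doa10Δ at 30 °C, and wild type, das1Δ, cdc34-1 and cdc53-1 at 37 °C; 2-3 technical replicates each.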

[2] = tested on: Saccharomyces cerevisiae; assay: as above; conditions: genetic background: wild type; temperature: 30 C
[3] = genetic background: cdc34-1, temperature: 37 C
[4] = genetic background: cdc53-1, temperature: 37 C
[5] = genetic background: das1 deletion, temperature: 30 C
[6] = genetic background: das1 deletion, temperature: 37 C
[7] = genetic background: doa10 deletion, temperature: 30 C
[8] = genetic background: wild type, temperature: 30 C
[9] = genetic background: wild type, temperature: 37 C
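Also: PSI is a weighted mean of sequencing reads over stability bins, variants kept only with over 10 reads, mCherry proximal and sfGFP distal, peptide attached via GGGS linker.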

ALFVGVVLLVCW
protein stability index [1, 3]: 0.0857 ± 0.0098 | protein stability index [1, 4]: 0.193 ± 0.023 | protein stability index [1, 5]: 0.177 ± 0.023 | protein stability index [1, 6]: 0.28 ± 0.0069 | protein stability index [1, 7]: 0.154 ± 0.013 | protein stability index [1, 8]: 0.156 ± 0.032 | protein stability index [1, 9]: 0.24564 ± 0.00015 | protein stability index [2]: 0.298 ± 0.013

LVGLLASWLRFN
protein stability index [1, 3]: 0.579 ± 0.052 | protein stability index [1, 4]: 0.6987 ± 0.001 | protein stability index [1, 5]: 0.672 ± 0.0051 | protein stability index [1, 6]: 0.773 ± 0.017 | protein stability index [1, 7]: 0.12 ± 0.0057 | protein stability index [1, 8]: 0.137 ± 0.012 | protein stability index [1, 9]: 0.199 ± 0.061 | protein stability index [2]: 0.137 ± 0.039

CVMWFLLSAYYL
protein stability index [1, 3]: 0.358 ± 0.019 | protein stability index [1, 4]: 0.4288 ± 0.0029 | protein stability index [1, 5]: 0.265 ± 0.037 | protein stability index [1, 6]: 0.4336 ± 0.002 | protein stability index [1, 7]: 0.285 ± 0.013 | protein stability index [1, 8]: 0.267 ± 0.042 | protein stability index [1, 9]: 0.457 ± 0.042 | protein stability index [2]: 0.386 ± 0.061

VFSCFLFLVVLV
protein stability index [1, 3]: 0.129 ± 0.048 | protein stability index [1, 4]: 0.104 ± 0.011 | protein stability index [1, 5]: 0.205 ± 0.035 | protein stability index [1, 6]: 0.283 ± 0.023 | protein stability index [1, 7]: 0.279 ± 0.012 | protein stability index [1, 8]: 0.169 ± 0.019 | protein stability index [1, 9]: 0.2247 ± 0.0019 | protein stability index [2]: 0.242 ± 0.0034

LFDYEAGEVMGG
protein stability index [1, 3]: 0.729 ± 0.042 | protein stability index [1, 4]: 0.747 ± 0.03 | protein stability index [1, 5]: 0.661 ± 0.023 | protein stability index [1, 6]: 0.783 ± 0.017 | protein stability index [1, 7]: 0.656 ± 0.025 | protein stability index [1, 8]: 0.689 ± 0.022 | protein stability index [1, 9]: 0.779 ± 0.023 | protein stability index [2]: 0.717 ± 0.017

VVLVVVWWGGVE
protein stability index [1, 3]: 0.242 ± 0.051 | protein stability index [1, 4]: 0.421 ± 0.074 | protein stability index [1, 5]: 0.249 ± 0.034 | protein stability index [1, 6]: 0.4872 ± 0.0025 | protein stability index [1, 7]: 0.21 ± 0.003 | protein stability index [1, 8]: 0.258 ± 0.029 | protein stability index [1, 9]: 0.403 ± 0.036 | protein stability index [2]: 0.3931 ± 0.00072

ATSGATILVLIA
protein stability index [1, 3]: 0.569 ± 0.014 | protein stability index [1, 4]: 0.65 ± 0.0048 | protein stability index [1, 5]: 0.488 ± 0.024 | protein stability index [1, 6]: 0.6473 ± 0.0042 | protein stability index [1, 7]: 0.188 ± 0.0099 | protein stability index [1, 8]: 0.218 ± 0.021 | protein stability index [1, 9]: 0.342 ± 0.0064 | protein stability index [2]: 0.307 ± 0.0047

SRRRRLVSKFLA
protein stability index [1, 3]: 0.63 ± 0.043 | protein stability index [1, 4]: 0.7 ± 0.042 | protein stability index [1, 5]: 0.653 ± 0.027 | protein stability index [1, 6]: 0.729 ± 0.03 | protein stability index [1, 7]: 0.141 ± 0.019 | protein stability index [1, 8]: 0.161 ± 0.0082 | protein stability index [1, 9]: 0.3 ± 0.0063 | protein stability index [2]: 0.223 ± 0.017

DFWCIIVIFLFR
protein stability index [1, 3]: 0.221 ± 0.004 | protein stability index [1, 4]: 0.348 ± 0.027 | protein stability index [1, 5]: 0.248 ± 0.015 | protein stability index [1, 6]: 0.393 ± 0.015 | protein stability index [1, 7]: 0.225 ± 0.0077 | protein stability index [1, 8]: 0.251 ± 0.031 | protein stability index [1, 9]: 0.34 ± 0.0045

DFRGVSVIRHQV
protein stability index [1, 3]: 0.615 ± 0.065 | protein stability index [1, 4]: 0.7327 ± 0.0024 | protein stability index [1, 5]: 0.64 ± 0.015 | protein stability index [1, 6]: 0.7366 ± 0.0065 | protein stability index [1, 7]: 0.126 ± 0.0098 | protein stability index [1, 8]: 0.147 ± 0.018 | protein stability index [1, 9]: 0.308 ± 0.052 | protein stability index [2]: 0.179 ± 0.047

VSLIFCLFFLSC
protein stability index [1, 3]: 0.424 ± 0.0047 | protein stability index [1, 4]: 0.502 ± 0.044 | protein stability index [1, 5]: 0.402 ± 0.018 | protein stability index [1, 6]: 0.52 ± 0.0063 | protein stability index [1, 7]: 0.395 ± 0.024 | protein stability index [1, 8]: 0.404 ± 0.027 | protein stability index [1, 9]: 0.492 ± 0.027 | protein stability index [2]: 0.442 ± 0.013

TVWRRIRHACAH
protein stability index [1, 3]: 0.597 ± 0.023 | protein stability index [1, 4]: 0.683 ± 0.0099 | protein stability index [1, 5]: 0.596 ± 0.013 | protein stability index [1, 6]: 0.702 ± 0.035 | protein stability index [1, 7]: 0.193 ± 0.0082 | protein stability index [1, 8]: 0.226 ± 0.015 | protein stability index [1, 9]: 0.365 ± 0.0047 | protein stability index [2]: 0.376 ± 0.038

VIVKSRTTLYIS
protein stability index [1, 3]: 0.49 ± 0.015 | protein stability index [1, 4]: 0.616 ± 0.0078 | protein stability index [1, 5]: 0.538 ± 0.013 | protein stability index [1, 6]: 0.613 ± 0.0096 | protein stability index [1, 7]: 0.092 ± 0.018 | protein stability index [1, 8]: 0.107 ± 0.018 | protein stability index [1, 9]: 0.193 ± 0.023 | protein stability index [2]: 0.155 ± 0.0099

IGFSPSFQLYSA
protein stability index [1, 3]: 0.726 ± 0.0078 | protein stability index [1, 4]: 0.756 ± 0.012 | protein stability index [1, 5]: 0.666 ± 0.0083 | protein stability index [1, 6]: 0.77318 ± 9.2e-05 | protein stability index [1, 7]: 0.6445 ± 0.0049 | protein stability index [1, 8]: 0.67 ± 0.016 | protein stability index [1, 9]: 0.747 ± 0.012 | protein stability index [2]: 0.721 ± 0.0083

WTRAHWFFQFFV
protein stability index [1, 3]: 0.334 ± 0.061 | protein stability index [1, 4]: 0.677 ± 0.051 | protein stability index [1, 5]: 0.667 ± 0.018 | protein stability index [1, 6]: 0.739 ± 0.015 | protein stability index [1, 7]: 0.0772 ± 0.00094 | protein stability index [1, 8]: 0.0685 ± 0.0097 | protein stability index [1, 9]: 0.0858 ± 0.015 | protein stability index [2]: 0.171 ± 0.0033
